Experimental data taken from patent US20250277199, “NOVEL CRISPR-CAS NUCLEASES FROM METAGENOMES” (Brain Biotech AG, published 2025).

Target: T1, BMC11 (uncultured bacterium (metagenome))
T1 chain: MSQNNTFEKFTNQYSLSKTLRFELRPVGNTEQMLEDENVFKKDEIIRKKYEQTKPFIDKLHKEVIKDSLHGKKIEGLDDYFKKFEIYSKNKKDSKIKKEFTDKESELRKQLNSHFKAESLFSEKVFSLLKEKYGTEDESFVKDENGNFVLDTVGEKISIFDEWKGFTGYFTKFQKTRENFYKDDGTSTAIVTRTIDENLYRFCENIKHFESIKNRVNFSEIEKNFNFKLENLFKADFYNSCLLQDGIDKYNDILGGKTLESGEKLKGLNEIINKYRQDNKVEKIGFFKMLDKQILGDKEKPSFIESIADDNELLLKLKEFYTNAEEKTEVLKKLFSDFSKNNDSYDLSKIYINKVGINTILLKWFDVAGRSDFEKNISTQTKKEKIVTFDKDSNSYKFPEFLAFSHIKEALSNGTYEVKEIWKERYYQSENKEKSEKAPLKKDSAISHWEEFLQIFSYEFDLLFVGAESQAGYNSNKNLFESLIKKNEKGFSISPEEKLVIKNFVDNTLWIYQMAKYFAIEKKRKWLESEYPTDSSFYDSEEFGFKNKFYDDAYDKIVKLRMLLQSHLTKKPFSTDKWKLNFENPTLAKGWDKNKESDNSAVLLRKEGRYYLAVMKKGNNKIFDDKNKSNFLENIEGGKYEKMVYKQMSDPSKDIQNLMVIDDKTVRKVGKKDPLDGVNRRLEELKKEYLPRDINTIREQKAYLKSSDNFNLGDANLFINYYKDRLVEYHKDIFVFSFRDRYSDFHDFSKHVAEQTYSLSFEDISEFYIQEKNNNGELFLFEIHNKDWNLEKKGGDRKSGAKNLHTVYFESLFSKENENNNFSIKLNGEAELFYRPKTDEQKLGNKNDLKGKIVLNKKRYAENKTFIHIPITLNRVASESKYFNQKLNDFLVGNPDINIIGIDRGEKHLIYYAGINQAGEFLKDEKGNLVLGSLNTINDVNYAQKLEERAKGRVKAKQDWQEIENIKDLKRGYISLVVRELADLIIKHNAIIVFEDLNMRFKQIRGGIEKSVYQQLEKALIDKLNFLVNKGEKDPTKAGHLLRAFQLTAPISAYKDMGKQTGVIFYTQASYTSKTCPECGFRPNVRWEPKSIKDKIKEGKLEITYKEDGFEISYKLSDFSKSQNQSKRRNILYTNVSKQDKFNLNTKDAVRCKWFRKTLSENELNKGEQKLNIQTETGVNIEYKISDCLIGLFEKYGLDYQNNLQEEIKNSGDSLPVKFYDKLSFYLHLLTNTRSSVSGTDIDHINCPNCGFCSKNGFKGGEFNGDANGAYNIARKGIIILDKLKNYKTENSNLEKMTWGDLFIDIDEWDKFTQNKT
Assay: cell_activity; PAM not stated; E. coli depletion, 30 C
Procedure, shortened: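 E. coli carrying arabinose-induced (0.2%) BMC nuclease, grown at 30° C., made electrocompetent and electroporated with 50-100 ng plasmid carrying gRNA against malQ. Transformants plated on selective M9-glucose agar with kanamycin/ampicillin (± nourseothricin), and growth scored after 48 h at 30° C.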

B1: malQ gRNA (BMC stem-loop + 24 nt spacer) ; malQ protospacer (ssRNA ; dsDNA)
RNA: GAUUUCUACUAUUGUAGAUGUGGCGGUACGUUGAUGCAUCGCG
DNA 1: GTGGCGGTACGTTGATGCATCGCG
DNA 2: CGCGATGCATCAACGTACCGCCAC
activity: > 99.9 % colony reduction
